# Experimental data taken from publication PMC3469469.
# Read-outs that look alike come from different tables or passages of the source.
# Key:
# C3d C3d (Homo sapiens) [1] = biological target: C3d C3d (Homo sapiens) (UniProt P01024); settings: cited from earlier work
# complement C3b (human) = complement C3b (human) (UniProt P01024)
# C3d C3d (Homo sapiens) [2] = biological target: C3d C3d (Homo sapiens) (UniProt P01024); settings: cited from earlier work; remark: listed apart in the source
# C3d C3d (Homo sapiens), sequence (P01024 1002-1303): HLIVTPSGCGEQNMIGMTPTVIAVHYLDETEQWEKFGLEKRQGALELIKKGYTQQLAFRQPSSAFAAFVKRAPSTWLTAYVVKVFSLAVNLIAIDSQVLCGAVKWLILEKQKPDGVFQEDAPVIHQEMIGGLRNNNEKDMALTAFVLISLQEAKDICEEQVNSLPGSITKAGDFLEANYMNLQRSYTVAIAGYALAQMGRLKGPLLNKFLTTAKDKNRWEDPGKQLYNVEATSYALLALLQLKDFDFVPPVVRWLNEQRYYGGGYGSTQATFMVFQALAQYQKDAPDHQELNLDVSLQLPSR
# Efb Efb-C, sequence (P68799 101-165): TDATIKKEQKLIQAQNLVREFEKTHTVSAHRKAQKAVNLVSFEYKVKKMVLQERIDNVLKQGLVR
# Efb-C (domain or fragment), sequence (A6QG59 101-165 limits assumed): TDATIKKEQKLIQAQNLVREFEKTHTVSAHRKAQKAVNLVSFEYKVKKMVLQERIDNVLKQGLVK
Substance,"C3b left on serum-opsonized S. aureus after plasmin with 2 µM fragment, flow cytometry (amount without plasmin set to 100%) (complement C3b (human)) [%]",also measured
Efb Efb-C (from UniProt P68799),–,Kd (C3d C3d (Homo sapiens) [1]): 0.0008 µM
Efb-C (domain or fragment),38,–
Sbi 3–4 (domain or fragment),50,–
Sbi domains 3-4 (from UniProt A7X659),–,Kd (C3d C3d (Homo sapiens) [2]): 1.4 µM
